The text below walks through data of patent US20220017630A1 (JIANGSU SIMCERE PHARMACEUTICAL, published 2022).

Substitutions are numbered along the chain they refer to.

First the molecules themselves.
T1: mouse TNFR2 (mouse, UniProt P25119 23-258, limits assumed)
T1 sequence (looked up): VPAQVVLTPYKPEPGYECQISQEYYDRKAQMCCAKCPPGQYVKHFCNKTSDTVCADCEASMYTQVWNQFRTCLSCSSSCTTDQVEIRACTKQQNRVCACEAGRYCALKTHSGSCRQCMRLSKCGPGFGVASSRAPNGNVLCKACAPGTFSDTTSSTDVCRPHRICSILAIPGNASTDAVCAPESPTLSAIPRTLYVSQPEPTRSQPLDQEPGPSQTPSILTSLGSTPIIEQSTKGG

T2: human CREG-His protein (human, UniProt O75629 32-220, limits assumed)
T2 construct: Control antigen in ELISA; also called control human CREG-His
T2 sequence (looked up): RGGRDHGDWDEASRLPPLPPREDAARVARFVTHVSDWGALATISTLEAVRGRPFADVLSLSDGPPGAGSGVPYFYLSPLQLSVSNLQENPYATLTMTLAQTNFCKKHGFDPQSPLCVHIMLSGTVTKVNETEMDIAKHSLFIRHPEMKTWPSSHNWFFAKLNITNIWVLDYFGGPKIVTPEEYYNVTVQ

T3: human TNFR2 on the cell surface (CHO-TNFR2 cells; human Treg cells) (human, UniProt P20333 23-461)
T3 sequence (looked up): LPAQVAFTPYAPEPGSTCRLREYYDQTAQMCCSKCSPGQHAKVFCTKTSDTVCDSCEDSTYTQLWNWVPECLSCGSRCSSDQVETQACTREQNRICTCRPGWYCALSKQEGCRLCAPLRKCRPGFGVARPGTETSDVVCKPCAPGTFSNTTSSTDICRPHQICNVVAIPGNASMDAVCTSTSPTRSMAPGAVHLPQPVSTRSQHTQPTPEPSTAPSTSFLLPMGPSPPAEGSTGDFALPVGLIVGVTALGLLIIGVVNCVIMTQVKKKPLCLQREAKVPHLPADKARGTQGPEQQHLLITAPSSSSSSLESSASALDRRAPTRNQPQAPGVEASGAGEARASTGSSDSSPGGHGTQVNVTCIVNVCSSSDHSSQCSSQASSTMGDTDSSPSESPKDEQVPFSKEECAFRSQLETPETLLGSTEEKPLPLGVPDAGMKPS

T4: Human TNFR2 recombinant protein (Sino 10417-H08H) (human, UniProt P20333 23-257)
T4 construct: also called hTNFR2 (His tag)
T4 sequence (looked up): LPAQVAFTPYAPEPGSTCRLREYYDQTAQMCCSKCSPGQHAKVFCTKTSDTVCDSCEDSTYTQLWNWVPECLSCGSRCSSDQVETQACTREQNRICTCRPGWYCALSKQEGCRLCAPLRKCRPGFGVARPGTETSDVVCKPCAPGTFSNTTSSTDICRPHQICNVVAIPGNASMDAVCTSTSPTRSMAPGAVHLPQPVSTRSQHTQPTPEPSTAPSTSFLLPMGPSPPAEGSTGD

T5: cynomolgus TNFR2 (Sino 90102-C08H) (cynomolgus, UniProt A0A2K5VET2 132-366)
T5 construct: also called CynoTNFR2 (His tag)
T5 sequence: T4 sequence (looked up) with S16G, S36P, P117Q, N164H, E210A, S216G, M223V

T6: human TNFR2 (Novoprotein, Catalog No. C830) (human, UniProt P20333 23-257, limits assumed)
T6 construct: construct not described; also called TNFR2 protein
T6 sequence (looked up): T4 sequence (looked up)

B1: TNFR2 antibody #219 (antibody, V domains shown)
VH: EVQLQESGAELVRPGASVKLSCKASGYSFTNYWMNWVKQRPGQGLEWIGMIHPSDTETRLNQNFKDKATLTVDKSSSTSYMQLSSPTSEDSAVYYCARGEGLGAARSVSMDYWGQGTTVTVSS
VL: DILMTQSPSSLSASLGDRVTISCRASQDISNYLNWYQQKPDGTVKVLIYYTAILHSGVPSRFSGSGSGTDYSLTISNLEQEDIATYFCQQGNTLPWTFGGGTKLEIK
B2: TNFR2 antibody #226 (antibody, V domains shown)
VH: B1 VH with T56S, N63K, S79A
VL: B1 VL with L3Q, I53L
B3: TNFR2 antibody #365 (antibody, V domains shown)
VH: EVQLQESGPGLVQPSQSLSITCTVSGFSLTSYGVHWVRQSPGKGLEWLGLIWSDGSPDYSAAFISRLSINKDNSKSQVFFKMNSLQADDTAIYYCARNDDGGDYVMDYWGQGTTVTVSS
VL: EIVLTQSPALMSASPGEKVTMTCSASSSVSYMYWYQQKPRSSPKPWIYLTSNLASGVPARFSGSGSGTSYSLTISSMEAEDAATYYCQQWTSNPLTFGAGTKLEIK
B4: TNFR2 antibody #133 (antibody, V domains shown)
VH: EVQLQESGAELVRSGASVKLSCTASGFNIKDYYIQWVKQRPEQGLEWIGWIDPESGNTKYAPKFQDKATMTADTSSNTAYLQLSGLTSEDSAVYYCNAYYDYDGSMDYWGQGTTVTVSS
VL: DIVMTQSPLSLPVSLGDQASISCRSSQSLVHSNGNTYLHWYLQKPGQSPKLLIYKVSNRFSGVPDRFSGSGSGTDFTLKISRVETDDLGVYFCSQSTHVPTWTFGGGTKLEIK

One experiment addresses T1, mouse TNFR2. Description: ELISA. On the technique in general: An ELISA detects its analyte on a solid surface through an enzyme-linked reagent.
In the case of B1, the binding result is on record as “no binding (tested: 28 ng/ml)”.

B2: the binding result is on record as “no binding (tested: 28 ng/ml)”.

With B3, the binding result is “no binding (tested: 28 ng/ml)”.

Regarding B4, the binding result is “no binding (tested: 28 ng/ml)”.

The next experiment addresses T2, human CREG-His protein. Description: ELISA.
As to B1, the binding result was “no binding (tested: 28 ng/ml)”.

Regarding B2, the binding result was “no binding (tested: 28 ng/ml)”.

B3: the binding result was “no binding (tested: 28 ng/ml)”.

Consider B4, for which the binding result is reported as “no binding (tested: 28 ng/ml)”.

A further experiment addresses T3, human TNFR2 on the cell surface …. Description: cell-based or functional assay.
With B1, the “proliferation inhibition (TNFα-induced Treg cell proliferation, against anti-Hel)” value (“proliferation inhibition” below) is 13.6%.

For the molecule B2, the “proliferation inhibition” value came out at 10.3%.

For B3, the “proliferation inhibition” value is 11%.

For B4, the “proliferation inhibition” value is 9.7%.

For the next experiment the target is unchanged. Description: cell-based or functional assay. This is another data set of the same source.
As for B1, the “% AUC versus positive control (#52), ADCC against Treg” value (“% AUC versus positive control” below) came to 52.7%.

Turning to B2, the “% AUC versus positive control” value turned out to be 69%.

B3: the “% AUC versus positive control” value is 70.7%.

As for B4, the “% AUC versus positive control” value was found to be 46.6%.

The next experiment addresses T4, Human TNFR2 recombinant protein (Sino …). Description: ELISA, coated antigen 0.5 ug/ml, antibody 28 ng/ml. The procedure:
(§1) An microplate was pre-coated with 100 μl/well of 0.5 μg/ml human TNFR2 or cynomolgus TNFR2 (the same antigen protein as in Example 4). […] A mouse anti-human IgG Fc-HRP working solution (1:10000 dilution) was added to the plate at 100 μl/well after plate washing, and incubated with shaking at room temperature for 1.0 h. The plate was washed again, a HRP substrate TMB was added for color development prior to the termination of the reaction by adding termination solution. An microplate reader was used to read the absorption value.
For B1, the “ELISA OD” value came to 3.37 OD.

As to B2, the “ELISA OD” value came to 3.34 OD.

Regarding B3, the “ELISA OD” value is 3.19 OD.

Turning to B4, the “ELISA OD” value turned out to be 3.12 OD.

A further experiment has as its target T5, cynomolgus TNFR2 (Sino 90102-C08H). Nature of the experiment: ELISA, coated antigen 0.5 ug/ml, antibody 28 ng/ml. The procedure: as §1
As for B1, the “ELISA OD” value was determined as 3.41 OD.

Regarding B2, the “ELISA OD” value was 3.28 OD.

For B3, the “ELISA OD” value was determined as 3.15 OD.

For the molecule B4, the “ELISA OD” value is 3.18 OD.

The next experiment deals with T6, human TNFR2 (Novoprotein, Catalog No. …). Nature of the experiment: blocking ELISA, TNFα-biotin on coated human TNFR2, antibody 2 nM. The procedure:
A microplate was pre-coated with 100 μl/well of 1 μg/ml human TNFR2 (Novoprotein, Catalog No. C830). […] After washing the plate, a Streptavidin-HRP working solution (1:10000 dilution) was added at 100 μl/well, and incubated with shaking at room temperature for 40 min. The plate was washed again, the HRP substrate TMB was added for color development, the termination solution was added to terminate the reaction, and the microplate reader was used to read the absorption value.
On to B1, for which the “ELISA OD of antibodies to be tested (2 nM)” value (“ELISA OD of antibodies” for short) stood at 0.756 OD.

As to B2, the “ELISA OD of antibodies” value amounted to 0.709 OD.

B3: the “ELISA OD of antibodies” value stood at 1.26 OD.

Turning to B4, the “ELISA OD of antibodies” value is 2.11 OD.

The target of another experiment is T3, human TNFR2 on the cell surface …. Nature of the experiment: flow cytometry, blocking of TNFα-biotin on CHO-TNFR2 cells; against 002#. The procedure:
CHO cells that stably overexpressed human TNFR2 were used for experiments. The cells were resuscitated and passaged until in good state, and the expression level of human TNFR2 on the cells was assessed by FACS. Compared to the isotype control, the assay could be carried out when the fold change of mean fluorescence intensity (MFI) was more than 100 times.
CHO-TNFR2 cells were digested, washed twice with DPBS and stained with Live/Dead (L/D) at room temperature for 20 min, and then seeded at 1×10⁵ cells/50 μl/well. […] The diluted antibodies were added 50 μl/well into wells pre-seeded with cells, and gently blown and mixed to make the final concentrations of the antibodies to 20, 6.67, 2.22, 0.74, 0.247, 0.08, 0.027 and 0 nM, respectively followed by incubation at 4° C. for 30 min. […] After washing twice with the staining buffer, 100 μl/well of PE-streptavidin was added and incubated at 4° C. for 30 min. After additional washing with the staining buffer twice, 150 μl resuspended cells was analyzed using an flow cytometry. Taking the logarithmic value of the antibody concentrations as abscissa and the corresponding MFI value as ordinate, the inhibition curve of the antibody was drawn, and the IC50 value was calculated by four parameters fitting.
(In flow cytometry, cells or beads pass a laser one at a time.)
Turning to B1, the “IC50 Relative Value %” value was found to be 71.4%.

Turning to B2, the “IC50 Relative Value %” value was found to be 129%.

In the case of B3, the “IC50 Relative Value %” value was found to be 232%.

In the case of B4, the “IC50 Relative Value %” value amounted to 150%.
